Assay results taken from the supplement of paper PMC10567573.

B1: GLT8D2 (parent)
chain: QEAKLLHWNGRHKPWDFPSVHNDL
B2: DVL3 (parent)
chain: FPELGYSYGGGSASSQHSEGSRSS

Variants of: B1
Test: protein stability index of a GFP-peptide fusion (GPS, HEK-293T) (PSI 1-6); higher = more stable
Details: c terminus: a fixed tail appended
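Also: lentivirally expressed fusions sorted by FACS into six bins by GFP to DsRed ratio, PSI derived from sequencing read proportions per bin multiplied by bin number.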

| Variant | protein stability index |
| --- | --- |
| A3N | 2.84 |
| A3P | 2.33 |
| A3M | 3.06 |
| A3R | 1.95 |
| A3F | 2.25 |
| A3H | 2.83 |
| A3E | 3.51 |
| A3K | 2.59 |
| A3T | 2.75 |
| A3I | 2.24 |
| A3L | 2.59 |
| A3D | 3.47 |
| A3V | 2.5 |
| A3Q | 2.58 |
| A3G | 2.6 |
| A3S | 2.69 |
| A3C | 2.23 |
| A3Y | 2.19 |
| A3W | 2.24 |
| L6C | 2.75 |
| L6Y | 2.56 |
| L6M | 2.3 |
| L6S | 2.91 |
| L6R | 2.85 |

| Variant | protein stability index |
| --- | --- |
| L6N | 2.71 |
| L6P | 2.7 |
| L6I | 2.67 |
| L6W | 2.26 |
| L6A | 2.87 |
| L6G | 2.89 |
| L6F | 2.83 |
| L6T | 2.68 |
| L6V | 2.48 |
| L6H | 2.62 |
| L6E | 3.74 |
| L6K | 2.52 |
| L6Q | 2.76 |
| L6D | 2.79 |
| L5H | 2.67 |
| L5V | 2.58 |
| L5D | 3.3 |
| L5C | 2.77 |
| L5M | 2.94 |
| L5K | 3.14 |
| L5T | 2.81 |
| L5Y | 2.45 |
| L5R | 2.92 |
| L5Q | 2.83 |

| Variant | protein stability index |
| --- | --- |
| L5G | 3.26 |
| L5I | 2.73 |
| L5N | 2.67 |
| L5A | 3.04 |
| L5P | 3.05 |
| L5E | 3.33 |
| L5S | 3.27 |
| L5F | 2.51 |
| L5W | 2.59 |
| R11G | 2.64 |
| R11A | 3.24 |
| R11Y | 2.28 |
| R11F | 2.58 |
| R11K | 2.61 |
| R11Q | 3.35 |
| R11M | 3.1 |
| R11N | 3.05 |
| R11P | 2.33 |
| R11D | 3.33 |
| R11C | 2.55 |
| R11W | 2.18 |
| R11T | 3.11 |
| R11I | 2.76 |
| R11S | 2.82 |

| Variant | protein stability index |
| --- | --- |
| R11H | 2.64 |
| R11V | 2.62 |
| R11L | 2.34 |
| R11E | 3.58 |
| K13N | 2.77 |
| K13G | 2.62 |
| K13A | 2.85 |
| K13M | 2.94 |
| K13H | 2.47 |
| K13D | 3.73 |
| K13F | 2.69 |
| K13P | 3.04 |
| K13E | 2.92 |
| K13I | 2.35 |
| K13C | 2.29 |
| K13L | 2.26 |
| H7M | 2.56 |
| H7R | 2.81 |
| H7Y | 1.85 |
| H7L | 2.15 |
| H7G | 2.63 |
| H7D | 3.16 |
| H7Q | 2.9 |
| H7A | 2.87 |

| Variant | protein stability index |
| --- | --- |
| H7V | 2.1 |
| H7C | 2.25 |
| H7W | 2.84 |
| H7P | 2.94 |
| H7N | 2.54 |
| H7F | 2.41 |
| H7K | 2.48 |
| H7T | 2.88 |
| H7E | 2.98 |
| H7I | 2.25 |
| H7S | 2.69 |
| W8R | 3.01 |
| W8G | 3.6 |
| W8K | 2.69 |
| W8D | 3.5 |
| W8L | 3.24 |
| W8M | 2.56 |
| W8H | 2.85 |
| W8S | 3.47 |
| W8A | 3.39 |
| W8T | 3.23 |
| W8C | 3.2 |
| W8Q | 3.71 |
| W8V | 3.1 |

| Variant | protein stability index |
| --- | --- |
| W8E | 3.47 |
| W8Y | 2.42 |
| W8F | 2.62 |
| W8I | 2.9 |
| W8P | 2.63 |
| W8N | 3.46 |
| E2W | 2.2 |
| E2H | 2.21 |
| E2T | 2.18 |
| E2L | 1.96 |
| E2Y | 2.04 |
| E2S | 2.04 |
| E2N | 2.48 |
| E2F | 1.58 |
| E2R | 2.17 |
| E2K | 2.18 |
| E2M | 1.45 |
| E2P | 2.58 |
| E2A | 1.89 |
| E2I | 1.78 |
| E2C | 1.97 |
| E2Q | 2.85 |
| E2D | 2.65 |
| E2G | 2.39 |

| Variant | protein stability index |
| --- | --- |
| E2V | 1.89 |
| H12M | 2.6 |
| H12F | 2.13 |
| H12C | 2.71 |
| H12P | 2.68 |
| H12L | 2.45 |
| H12V | 2.61 |
| H12T | 2.79 |
| H12R | 2.77 |
| H12N | 2.65 |
| H12I | 2.56 |
| H12D | 3.26 |
| H12E | 3.19 |
| H12G | 2.59 |
| H12S | 2.77 |
| H12A | 2.36 |
| H12Q | 2.58 |
| H12K | 2.73 |
| H12Y | 2.28 |
| H12W | 2.54 |
| Q1P | 2.85 |
| Q1D | 3.54 |
| Q1N | 2.84 |
| Q1Y | 1.79 |

| Variant | protein stability index |
| --- | --- |
| Q1R | 2.48 |
| Q1K | 2.49 |
| Q1I | 1.69 |
| Q1M | 2.35 |
| Q1E | 3.02 |
| Q1F | 1.65 |
| Q1A | 2.68 |
| Q1G | 2.65 |
| Q1L | 2.1 |
| Q1S | 2.51 |
| Q1W | 2.21 |
| Q1C | 1.75 |
| Q1H | 2.35 |
| Q1T | 2.49 |
| Q1V | 2 |
| K4H | 2.84 |
| K4N | 2.68 |
| K4C | 2.3 |
| K4M | 2.64 |
| K4F | 2 |
| K4Q | 2.5 |
| K4T | 2.92 |
| K4I | 2.47 |
| K4G | 2.89 |

| Variant | protein stability index |
| --- | --- |
| K4S | 2.99 |
| K4E | 3.28 |
| K4W | 2.7 |
| K4R | 2.87 |
| K4P | 2.83 |
| K4Y | 2.13 |
| K4V | 2.34 |
| K4D | 2.67 |
| K4A | 2.81 |
| K4L | 2.56 |
| G10F | 2.37 |
| G10V | 2.15 |
| G10I | 2.48 |
| G10K | 2.48 |
| G10D | 2.46 |
| G10H | 2.48 |
| G10R | 2.79 |
| G10S | 2.69 |
| G10E | 2.8 |
| G10P | 2.69 |
| G10W | 2.5 |
| G10M | 2.53 |
| G10T | 2.49 |
| G10C | 1.49 |

| Variant | protein stability index |
| --- | --- |
| G10A | 2.75 |
| G10N | 2.8 |
| G10Q | 2.7 |
| G10Y | 2.9 |
| G10L | 2.42 |
| N9S | 2.67 |
| N9F | 1.98 |
| N9M | 2.1 |
| N9E | 2.73 |
| N9W | 1.75 |
| N9G | 2.59 |
| N9T | 2.59 |
| N9D | 2.87 |
| N9R | 2.46 |
| N9Q | 2.76 |
| N9H | 2.73 |
| N9Y | 2.33 |
| N9C | 2.41 |
| N9V | 2.25 |
| N9L | 1.83 |
| N9A | 2.71 |
| N9I | 2 |
| N9P | 2.56 |
| N9K | 2.92 |

Variants of: B2
Test: as above
Details: c terminus: a fixed tail appended

| Variant | protein stability index |
| --- | --- |
| S23G | 3.26 |
| S23I | 3.34 |
| S23T | 2.46 |
| S23A | 2.97 |
| S23R | 3.05 |
| S23Q | 3.24 |
| S23L | 2.49 |
| S23H | 3.33 |
| S23D | 3.17 |
| S23P | 3.23 |
| S23N | 2.91 |
| S23Y | 2.49 |
| S23E | 2.9 |
| S23F | 2.39 |
| S23C | 3.38 |
| S23K | 3.05 |
| S23M | 2.33 |
| S23W | 2.59 |
| S23V | 2.63 |
| S24W | 1.95 |
| S24M | 2.97 |
| S24F | 2.57 |
| S24G | 3.01 |
| S24R | 3.69 |

| Variant | protein stability index |
| --- | --- |
| S24L | 2.94 |
| S24T | 2.92 |
| S24Q | 3.01 |
| S24V | 2.34 |
| S24N | 3.56 |
| S24Y | 2.58 |
| S24C | 2.99 |
| S24K | 3.42 |
| S24E | 4.02 |
| S24P | 3.93 |
| S24H | 3 |
| S24A | 3.5 |
| S24D | 3.24 |
| S24I | 2.37 |
| R22W | 2.88 |
| R22E | 3.71 |
| R22H | 3.24 |
| R22F | 2.79 |
| R22I | 3.43 |
| R22N | 3.56 |
| R22V | 3.18 |
| R22P | 3.59 |
| R22A | 3.41 |
| R22L | 2.53 |

| Variant | protein stability index |
| --- | --- |
| R22K | 3.15 |
| R22S | 3.66 |
| R22M | 3.4 |
| R22Y | 3.21 |
| R22T | 2.6 |
| R22C | 3.41 |
| R22Q | 2.92 |
| R22D | 3.42 |
| R22G | 3.53 |
| G20V | 2.75 |
| G20Y | 2.64 |
| G20D | 3.7 |
| G20L | 2.5 |
| G20P | 2.94 |
| G20S | 3.18 |
| G20R | 3.15 |
| G20I | 2.73 |
| G20E | 3.52 |
| G20K | 3.06 |
| G20Q | 3.27 |
| G20C | 2.99 |
| G20H | 2.9 |
| G20W | 2.32 |
| G20T | 3.42 |

| Variant | protein stability index |
| --- | --- |
| G20M | 2.48 |
| G20N | 3.43 |
| G20F | 2.63 |
| S21T | 3.24 |
| S21G | 2.71 |
| S21C | 3.3 |
| S21I | 2.83 |
| S21M | 2.78 |
| S21Y | 2.88 |
| S21F | 2.56 |
| S21D | 2.87 |
| S21K | 3.17 |
| S21L | 2.61 |
| S21W | 2.29 |
| S21E | 3 |
| S21H | 2.94 |
| S21A | 2.94 |
| S21N | 2.91 |
| S21P | 3.43 |
| S21R | 2.62 |
| S21Q | 3.41 |
| S21V | 3.07 |
